According to patent US20160297884A1 (Pfizer, published 2016):

Tests used:
[1] = biological target: T1, Human BCMA (human, UniProt Q02223 1-54, limits assumed); assay: SPR, IgG immobilised, 37 C
T1 construct: Soluble analyte in SPR; construct not described; also called huBCMA; B-cell maturation antigen
T1 sequence (looked up): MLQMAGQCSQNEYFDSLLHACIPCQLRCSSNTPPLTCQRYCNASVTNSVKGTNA
Description: (§1) All experiments were performed on a Bio-Rad Proteon XPR36 surface Plasmon resonance biosensor (Bio-Rad, Hercules, Calif.). […] The analysis temperature for the immobilization was 25° C. and the running buffer was HBS-T+(10 mM HEPES, 150 mM NaCl, 0.05% Tween-20, pH 7.4). Channels were activated in the analyte (horizontal) direction by injecting a mixture of 1 mM ECD and 0.25 mM NHS for 3 minutes at a flow rate of 30 μL/min. IgGs were immobilized on the activated spots by injecting them in the ligand (vertical) direction at 20 μg/mL in 10 mM Acetate pH 4.5 buffer for 1.5 minutes at […]. The activated surfaces were blocked by injecting 1M ethanolamine, pH 8.5 in the analyte direction for 3 minutes at 30 μL/min.
(§2) The analysis temperature for the BCMA binding analysis was 37° C. or 25° C. in a running buffer of HBS-T+, supplemented with 1 mg/mL BSA. A kinetic titration method was employed for the interaction analysis as described in Abdiche, et al. Human BCMA (huBCMA) or cynomolgus monkey BCMA (cyBCMA) analyte was injected in the analyte direction using a series of injections from low to high concentration. The concentrations used were 0.08 nM, 0.4 nM, 2 nM, 10 nM and 50 nM (a 5-membered series, with a 5-fold dilution factor and top concentration of 50 nM). The association time for a given analyte dilution was two minutes. Immediately after the 50 nM BCMA injection, dissociation was monitored for 2 hours.
(§3) The sensorgrams were double-referenced and fit to a 1:1 Langmuir with mass transport kinetic titration model in BIAevaluation Software version 4.1.1 (GE Lifesciences, Piscataway, N.J.).

[2] = biological target: T2, Human BCMA (human, UniProt Q02223 1-54, limits assumed); assay: SPR, IgG immobilised, human BCMA analyte
T2 construct: also called huBCMA; B-cell maturation antigen
T2 sequence (looked up): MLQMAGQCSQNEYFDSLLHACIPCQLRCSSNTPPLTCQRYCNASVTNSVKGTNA
Description: as §1, §2, §3

[3] = biological target: T3, Cynomolgus monkey BCMA (cynomolgus monkey); assay: SPR, IgG immobilised, cyno BCMA analyte
T3 construct: Soluble analyte in SPR; also called cyBCMA; Cyno BCMA
Description: as §1, §2, §3

B1: L3.PY/L3.KY/H2.LT (antibody, V domains shown)
VH: EVQLLESGGGLVQPGGSLRLSCAASGFTFGSYAMTWVRQAPGKGLEWVSAISLTGGNTFYADSVKGRFTISRDNSKNTLYLQMNSLRAEDTAVYYCARVSPIASGMDYWGQGTLVTVSS
VL: EIVLTQSPGTLSLSPGERATLSCRASQSVSSSYLAWYQQKPGQAPRLLIYGASSRATGIPDRFSGSGSGTDFTLTISRLEPEDFAVYYCKYYPYPPSFTFGQGTKVEIK
notes: IgG
Kd [1]: 310 pM | T ½ [1]: 12.8 min | koff [1]: 0.000906 s⁻¹ | kon [1]: 2.92e+06 M⁻¹ s⁻¹

B2: L3.PY/L3.KY/H3.TAQ (antibody, V domains shown)
VH: EVQLLESGGGLVQPGGSLRLSCAASGFTFGSYAMTWVRQAPGKGLEWVSAISGSGGNTFYADSVKGRFTISRDNSKNTLYLQMNSLRAEDTAVYYCTRVSPIAAQMDYWGQGTLVTVSS
VL: EIVLTQSPGTLSLSPGERATLSCRASQSVSSSYLAWYQQKPGQAPRLLIYGASSRATGIPDRFSGSGSGTDFTLTISRLEPEDFAVYYCKYYPYPPSFTFGQGTKVEIK
notes: IgG
Kd [1]: 230 pM | T ½ [1]: 17.8 min | koff [1]: 0.000649 s⁻¹ | kon [1]: 2.79e+06 M⁻¹ s⁻¹

B3: L3.PY/L3.KY/H3.YA (antibody, V domains shown)
VH: EVQLLESGGGLVQPGGSLRLSCAASGFTFGSYAMTWVRQAPGKGLEWVSAISGSGGNTFYADSVKGRFTISRDNSKNTLYLQMNSLRAEDTAVYYCARVSPIYAGMDYWGQGTLVTVSS
VL: EIVLTQSPGTLSLSPGERATLSCRASQSVSSSYLAWYQQKPGQAPRLLIYGASSRATGIPDRFSGSGSGTDFTLTISRLEPEDFAVYYCKYYPYPPSFTFGQGTKVEIK
notes: IgG
Kd [1]: 280 pM | T ½ [1]: 12.7 min | koff [1]: 0.000912 s⁻¹ | kon [1]: 3.3e+06 M⁻¹ s⁻¹

B4: L3.PY/L3.KY/H2.YQ (antibody, V domains shown)
VH: EVQLLESGGGLVQPGGSLRLSCAASGFTFGSYAMTWVRQAPGKGLEWVSAISYQGGNTFYADSVKGRFTISRDNSKNTLYLQMNSLRAEDTAVYYCARVSPIASGMDYWGQGTLVTVSS
VL: EIVLTQSPGTLSLSPGERATLSCRASQSVSSSYLAWYQQKPGQAPRLLIYGASSRATGIPDRFSGSGSGTDFTLTISRLEPEDFAVYYCKYYPYPPSFTFGQGTKVEIK
notes: IgG
Kd [1]: 770 pM | T ½ [1]: 7.02 min | koff [1]: 0.00165 s⁻¹ | kon [1]: 2.14e+06 M⁻¹ s⁻¹

B5: L3.PY/L3.KY/H2.QR (antibody, V domains shown)
VH: EVQLLESGGGLVQPGGSLRLSCAASGFTFGSYAMTWVRQAPGKGLEWVSAISGSGGNTFYADQRKGRFTISRDNSKNTLYLQMNSLRAEDTAVYYCARVSPIASGMDYWGQGTLVTVSS
VL: EIVLTQSPGTLSLSPGERATLSCRASQSVSSSYLAWYQQKPGQAPRLLIYGASSRATGIPDRFSGSGSGTDFTLTISRLEPEDFAVYYCKYYPYPPSFTFGQGTKVEIK
notes: IgG
Kd [1]: 340 pM | T ½ [1]: 11.7 min | koff [1]: 0.00099 s⁻¹ | kon [1]: 2.95e+06 M⁻¹ s⁻¹

B6: L3.PY/L3.KY/H2.QL (antibody, V domains shown)
VH: EVQLLESGGGLVQPGGSLRLSCAASGFTFGSYAMTWVRQAPGKGLEWVSAISGSGGNTFYADQLKGRFTISRDNSKNTLYLQMNSLRAEDTAVYYCARVSPIASGMDYWGQGTLVTVSS
VL: EIVLTQSPGTLSLSPGERATLSCRASQSVSSSYLAWYQQKPGQAPRLLIYGASSRATGIPDRFSGSGSGTDFTLTISRLEPEDFAVYYCKYYPYPPSFTFGQGTKVEIK
notes: IgG
Kd [1]: 570 pM | T ½ [1]: 5.56 min | koff [1]: 0.00208 s⁻¹ | kon [1]: 3.65e+06 M⁻¹ s⁻¹

B7: COMBO_Rd4_0.6nM_C21 (antibody, V domains shown)
VH: EVQLLESGGGLVQPGGSLRLSCAASGFTFSSYPMSWVRQAPGKGLEWVSAIGGSGGSLPYADSVKGRFTISRDNSKNTLYLQMNSLRAEDTAVYYCARYWPMDSWGQGTLVTVSS
VL: EIVLTQSPGTLSLSPGERATLSCRASQSVSSSYLAWYQQKPGQAPRLLMYDASIRATGIPDRFSGSGSGTDFTLTISRLEPEDFAVYYCQQYQSWPLTFGQGTKVEIK
notes: IgG
Kd [2]: 9 pM | koff [2]: 0.000115 s⁻¹ | kon [2]: 1.34e+07 M⁻¹ s⁻¹ | Kd [3]: 84 pM | koff [3]: 0.000304 s⁻¹ | kon [3]: 3.63e+06 M⁻¹ s⁻¹

B8: A02_Rd4_0.6nM_C03 (antibody, V domains shown)
VH: EVQLLESGGGLVQPGGSLRLSCAASGFTFSSYAMNWVRQAPGKGLEWVSAISDSGGSKWYADSVKGRFTISRDNSKNTLYLQMNSLRAEDTAVYYCARYWPMSLWGQGTLVTVSS
VL: EIVLTQSPGTLSLSPGERATLSCRASQSVSSSYLAWYQQKPGQAPRLLMYDASIRATGIPDRFSGSGSGTDFTLTISRLEPEDFAVYYCQQYFTWPLTFGQGTKVEIK
notes: IgG
Kd [2]: 43 pM | koff [2]: 0.000182 s⁻¹ | kon [2]: 4.27e+06 M⁻¹ s⁻¹ | Kd [3]: 201 pM | koff [3]: 0.000426 s⁻¹ | kon [3]: 2.12e+06 M⁻¹ s⁻¹

B9: A02_Rd4_0.6nM_C10 (antibody, V domains shown)
VH: EVQLLESGGGLVQPGGSLRLSCAASGFTFSSYAMNWVRQAPGKGLEWVSAISGWGGSLPYADSVKGRFTISRDNSKNTLYLQMNSLRAEDTAVYYCARYWPMDSWGQGTLVTVSS
VL: EIVLTQSPGTLSLSPGERATLSCRASQSVSAQYLAWYQQKPGQAPRLLMYDASIRATGIPDRFSGSGSGTDFTLTISRLEPEDFAVYYCQQYQRWPLTFGQGTKVEIK
notes: IgG
Kd [2]: 129 pM | koff [2]: 0.000296 s⁻¹ | kon [2]: 2.3e+06 M⁻¹ s⁻¹ | Kd [3]: 1840 pM | koff [3]: 0.00163 s⁻¹ | kon [3]: 883000 M⁻¹ s⁻¹

B10: A02_Rd4_0.6nM_C13 (antibody, V domains shown)
VH: EVQLLESGGGLVQPGGSLRLSCAASGFTFSSYAMNWVRQAPGKGLEWVSAISDSGGYRYYADSVKGRFTISRDNSKNTLYLQMNSLRAEDTAVYYCARYWPMSLWGQGTLVTVSS
VL: EIVLTQSPGTLSLSPGERATLSCRASQSVSSSYWAWYQQKPGQAPRLLMYDASIRATGIPDRFSGSGSGTDFTLTISRLEPEDFAVYYCQQYESWPLTFGQGTKVEIK
notes: IgG
Kd [2]: 66 pM | koff [2]: 0.000566 s⁻¹ | kon [2]: 8.53e+06 M⁻¹ s⁻¹ | Kd [3]: 560 pM | koff [3]: 0.00128 s⁻¹ | kon [3]: 2.29e+06 M⁻¹ s⁻¹

B11: A02_Rd4_0.6nM_C09 (antibody, V domains shown)
VH: EVQLLESGGGLVQPGGSLRLSCAASGFTFSSYAMNWVRQAPGKGLEWVSAISDSGGSMWYADSVKGRFTISRDNSKNTLYLQMNSLRAEDTAVYYCARYWPMSLWGQGTLVTVSS
VL: EIVLTQSPGTLSLSPGERATLSCRASQSVSSSYLAWYQQKPGQAPRLLMYDASIRATGIPDRFSGSGSGTDFTLTISRLEPEDFAVYYCQQYQSWPLTFGQGTKVEIK
notes: IgG
Kd [2]: 18 pM | koff [2]: 9.75e-05 s⁻¹ | kon [2]: 5.5e+06 M⁻¹ s⁻¹ | Kd [3]: 82 pM | koff [3]: 0.000174 s⁻¹ | kon [3]: 2.13e+06 M⁻¹ s⁻¹

B12: A02_Rd4_0.6nM_C26 (antibody, V domains shown)
VH: EVQLLESGGGLVQPGGSLRLSCAASGFTFSSYAMNWVRQAPGKGLEWVSAILMSGGSTYYADSVKGRFTISRDNSKNTLYLQMNSLRAEDTAVYYCARYWPMSLWGQGTLVTVSS
VL: EIVLTQSPGTLSLSPGERATLSCGPSQSVSSSYLAWYQQKPGQAPRLLMYDASIRATGIPDRFSGSGSGTDFTLTISRLEPEDFAVYYCQQYQSWPLTFGQGTKVEIK
notes: IgG
Kd [2]: 61 pM | koff [2]: 0.000443 s⁻¹ | kon [2]: 7.26e+06 M⁻¹ s⁻¹ | Kd [3]: 941 pM | koff [3]: 0.00256 s⁻¹ | kon [3]: 2.71e+06 M⁻¹ s⁻¹

B13: A02_Rd4_0.6nM_C06 (antibody, V domains shown)
VH: EVQLLESGGGLVQPGGSLRLSCAASGFTFSSYAMNWVRQAPGKGLEWVSAISDSGGSAWYADSVKGRFTISRDNSKNTLYLQMNSLRAEDTAVYYCARYWPMSLWGQGTLVTVSS
VL: EIVLTQSPGTLSLSPGERATLSCRASQSVSVLYLAWYQQKPGQAPRLLMYDASIRATGIPDRFSGSGSGTDFTLTISRLEPEDFAVYYCQQYQRWPLTFGQGTKVEIK
notes: IgG
Kd [2]: 21 pM | koff [2]: 7.37e-05 s⁻¹ | kon [2]: 3.49e+06 M⁻¹ s⁻¹ | Kd [3]: 58 pM | koff [3]: 0.000105 s⁻¹ | kon [3]: 1.81e+06 M⁻¹ s⁻¹

B14: A02_Rd4_0.6nM_C01 (antibody, V domains shown)
VH: EVQLLESGGGLVQPGGSLRLSCAASGFTFSSYAMNWVRQAPGKGLEWVSAILSSGGSTYYADSVKGRFTISRDNSKNTLYLQMNSLRAEDTAVYYCARYWPMDIWGQGTLVTVSS
VL: EIVLTQSPGTLSLSPGERATLSCRGGQSVSSSYLAWYQQKPGQAPRLLMYDASIRATGIPDRFSGSGSGTDFTLTISRLEPEDFAVYYCQQYQSWPLTFGQGTKVEIK
notes: IgG; also called P5AC1
Kd [2]: 193 pM | koff [2]: 0.000915 s⁻¹ | kon [2]: 4.74e+06 M⁻¹ s⁻¹ | Kd [3]: 655 pM | koff [3]: 0.00157 s⁻¹ | kon [3]: 2.39e+06 M⁻¹ s⁻¹
